Reference: the supplement of paper PMC12042874
± gives the uncertainty stated by the source.

experiment: amyloid nucleation score (Sup35N fusion, yeast selection) (log enrichment); library NNK2; higher = more nucleation; inactive = no reads after selection
How it was run: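 Using DiMSum, nucleation scores were taken as the log enrichment of output over input reads, centred on the mode score of non-aggregating sequences. The input and output reads came from Illumina sequencing of plasmid inserts, with sequences under 100 input reads excluded. The yeast were psi-negative, expressed Sup35N fused to peptides of 20 random codons, were induced with 100 μM copper sulfate for 24 hours, and were grown 7 days at 30°C on medium lacking adenine and uracil.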

Substance | amyloid nucleation score
MDSDNFLQYYSRYFNEVAFC | -0.145 ± 0.79
MDSMWPSVGGALKSRSGVFR | -0.126 ± 0.39
MEAIVERIGYITYVLNFKER | inactive
MEIRTQLFVLVCSKNILGDS | -0.849 ± 1.1
MEKARTGGGSVTHDGKCARW | 0.649 ± 0.22
MFASNLRKMSGGGVI | -0.694 ± 1.1
MFGGPGGGRDRVMVGDVLLG | 0.295 ± 1
MFGTMWAWFSVYACEVAWN | 0.045 ± 0.62
MFKWHYWVEHNFSTRDNICA | inactive
MFLKVSLVGNMVSEKPGRSS | 3.21 ± 0.15
MFNCTQSVLPLGF | inactive
MFPVPLVNIGMPDRWVKEKD | 0.469 ± 0.34
MFTVRWASFCVVINSSY | 2.91 ± 0.069
MFVYADFSHILEKRGHTGNR | 2.64 ± 0.15
MGCDGVSVLRWCTHIELGME | -0.782 ± 0.31
MGFRGIHMRVCAFLRWYNNY | -0.709 ± 0.33
MGGQLLSNECLHSDSFVCFH | 1.21 ± 0.47
MGLSTRLH | inactive
MGNLCCVPRYYMHQVEYPRF | inactive
MGPKSRFRSTRNGVKYL | -0.571 ± 0.64
MGRDLLASDSTCVGRVQGKL | 0.965 ± 0.57
MGSGYSQCAGRGWARVERLG | 1.44 ± 0.3
MIHYKYGFPNMGIRTYVSFV | 1.47 ± 0.26
MIRKVYYSF | -0.77 ± 1
MISCSLSFSLAPQDELRSCK | inactive

Substance | amyloid nucleation score
MKAHVVVTLSCRYNLYGAPH | 4.52 ± 0.054
MKGNSSGVA | 1.25 ± 0.31
MKPSSSLTYLE | -0.11 ± 0.5
MKSSPA | -0.395 ± 0.32
MKTGLGVFRSFDLVVYNRR | inactive
MKVLGNCISQIVNMDVWLLF | -1.73 ± 0.47
MLCCCTLQVGFAYIFLFL | 3.28 ± 0.15
MLCGINGMMSSTLVCGRAII | -0.161 ± 0.65
MLCRMSAFRLGMRYDTRFLL | -0.064 ± 1.1
MLCRYVVVQGLKVNMGHVFC | 7.567 ± 0.065
MLDMPDYCNYYL | 1.27 ± 0.14
MLFSTATYSSGRRFDFVEIA | 0.422 ± 0.65
MLIIKVLCSMCIVIFLTLIC | 2.55 ± 0.18
MLKMS | 1.85 ± 0.15
MLLVVYGQVRTISLLRRRSS | -0.243 ± 0.74
MLRNWLCRY | 2.02 ± 0.42
MLVSGSSLEW | 0.264 ± 0.42
MLVVLWQSARRSVTIIKVRT | 0.546 ± 0.5
MLYYTCTQQHTDFLRCF | -0.391 ± 0.32
MMGLGKCR | 1.36 ± 0.33
MMKGRDKTGYPTTRGVMCDK | 0.232 ± 0.18
MNASDIKTFKL | -0.531 ± 1.1
MNCVGG | -0.389 ± 0.61
MNFESNFRNTKCEIFIVIYN | 4.62 ± 0.11
MNFWMILVKSETYFNDRRPY | 7.152 ± 0.061

Substance | amyloid nucleation score
MNGCTTANGIVDTRSNAFTC | 1.87 ± 0.097
MNGIFVNLKSKIRTFCRSVY | 2.67 ± 0.11
MNIAVIHNMVQGSKAPDYHF | 4.67 ± 0.075
MNIVVYVHLGVSAQVSMAHR | 8.407 ± 0.041
MNVGCIDQFYCMWRCNIFWP | 7.678 ± 0.055
MNVGTFSLRFLSFDLL | -0.054 ± 1.1
MNWTSVHLDDWSRILIHTYC | inactive
MPSRYMIVMFNLTLPRRGVG | -0.226 ± 0.55
MQSINVNNVKTSTRPFFVNR | inactive
MQTICSN | -1.13 ± 1
MRCAPLMHHLARPASFRI | 2.08 ± 0.096
MRCKRYECSGDSWWGYSFAK | 0.131 ± 0.27
MRCNFADSAYRMISMTV | 0.412 ± 0.55
MRMVA | -0.723 ± 0.49
MRNPYFRHCRFITRRVVFID | inactive
MRPMIFPCYAMSSVSMLTSR | 0.72 ± 0.27
MRTIGGD | 0.348 ± 0.38
MRWRMCIIFNLVISY | 0.218 ± 1.1
MRYEFVLFLRFRGSDTKGRD | -0.124 ± 0.33
MRYRIICNFCHDVRKESLLK | -0.246 ± 0.8
MSAPRMEQSWEHQQQRDHTC | 0.661 ± 0.33
MSFNQLIMFETRSSTPYRWR | 5.71 ± 0.078
MSGSDNLILYSSV | -0.212 ± 0.45
MSMLMRVRCEISVTTML | 4.498 ± 0.031
MSNRVCCNYVGSHVRYCVSK | 4.913 ± 0.048

Substance | amyloid nucleation score
MSQFGHVCSRAYFLRDDQAN | inactive
MSRKFMGVFCTSSRGSLPRG | 0.653 ± 0.47
MSSIDFSFCTSSLRTYSIVR | 0.155 ± 1.1
MSTIEYSDGVEGRHILCLIA | 1.2 ± 0.35
MSVKSEAGRRSLRMNSKTSR | 0.078 ± 0.22
MSVLRSG | 0.526 ± 0.66
MSYVLMVFASPIMYVTHPIA | 1.89 ± 0.2
MTFAT | -1.51 ± 1.1
MTIDCFTFRDQGVYGTLMLK | 3.33 ± 0.043
MTIQSYGVILLLISVYWLSF | 0.584 ± 0.66
MTIVCRWR | 3.04 ± 0.16
MTIVVSDCTSVSDVFIGLGN | 2.29 ± 0.076
MTMGEKTLCPWNHSDLAPSR | 0.966 ± 0.49
MTNMT | 1.18 ± 0.61
MTRYDDRFVQNRSSWLDNFD | -0.909 ± 0.48
MTSFGYHMNLCH | 0.072 ± 1.1
MTWGSISNNLVTRTTPTYIC | 0.178 ± 0.56
MVAGDKRDGG | 2.39 ± 0.07
MVGNWDSV | -0.011 ± 0.49
MVHLRGIDVMSILDSYCESG | 0.544 ± 0.52
MVHTKYPLWSNSRVLWDSVT | 0.397 ± 0.64
MVMANHRSYRY | 7.663 ± 0.026
MVQPS | 0.462 ± 0.5
MVRDIEFTLKGRTMG | -0.032 ± 1.1
MVSVKSCYYVSVSVLSRFHF | 0.065 ± 0.36

Substance | amyloid nucleation score
MVWSSRDS | -0.548 ± 0.54
MVYGLDFIGASL | -0.016 ± 0.5
MWQSMLSAVGSVNVMSQLGT | 1.53 ± 0.33
MWRVWECGGRRDNLVRCPSR | 0.774 ± 0.51
MWWYSFPLGLLWVFNS | inactive
MYCLHCTTSCWSRLRLVNNF | 2.98 ± 0.16
MYIGVL | -0.065 ± 0.45
MYNRSRLSFA | -0.666 ± 1
MYSLR | inactive
MYTYLINVNVSDAFTLYGLE | 4.43 ± 0.056
MYVDLWFGTYRNS | 0.532 ± 0.54
MYVFMVSFYMGFCKYQNSVI | inactive
NACYRFILISSMVRLSFSVW | 0.389 ± 0.8
NAERSESLYNYKMAGPYGEG | -0.661 ± 1.1
NALGRMCGSWRLVIHISDWW | 0.236 ± 0.23
NASIQR | 0.564 ± 0.36
NATLNNVERFRAFRGTFLDY | inactive
NCEVFNGDALWRSFTGRYLM | 0.042 ± 1.1
NCLLVLHFG | 6.91 ± 0.073
NCLMLVGNIFWSEESPRLAM | 8.041 ± 0.068
NCNFSLEGHYCTFIKFHWTV | 3.23 ± 0.097
NCRLKLPSP | 3.69 ± 0.05
NCSHGLHLNVFNLVPYKSLI | 4.9 ± 0.096
NCSLCFENGMAYFCILIEGV | 5.645 ± 0.043
NDFFIFSQEYPYKRMFLQLL | -1.35 ± 0.53

Substance | amyloid nucleation score
NDGAIGIVAPGEHLLVRDVK | -0.573 ± 0.41
NDNKRYIHYPFLMGFTVSYL | -0.401 ± 0.6
NEADE | -0.119 ± 0.46
NEIQANNCGPKILKLYQNMR | 0.579 ± 0.8
NFCSMRSKVTCNSDDKFWNH | -1.13 ± 1.1
NFDVNSRWDTRTCFLSWLKQ | inactive
NFGADVDRFNRVEGSSDFHG | 0.285 ± 0.54
NFHLSVRSDSYVL | 3.14 ± 0.12
NFKYHCRYWFFVFAKFKFHL | -1.42 ± 0.75
NFMYRSSMFMHL | 4.74 ± 0.074
NFPMSSFKEEIWLRTRVPLC | 0.691 ± 0.66
NGGINNSWWGLIFLNLWPTI | -0.592 ± 0.79
NGLESYDFTQLY | -0.667 ± 0.64
NGLSSSTWGPWMYCWCVNMV | 8.751 ± 0.057
NGQFGTSHGMVGTGVSLRG | -0.012 ± 0.65
NGSYGSYMHFPEPIMSIFMY | inactive
NGTFSCGERVIEINDDSLSD | 0.486 ± 0.8
NGTINALFSDEAGWSSCGYL | 0.2 ± 0.34
NGVCQNCR | inactive
NGVRLNLVNFSFGLDVMPFR | 7.642 ± 0.071
NHITMFDRVSYYVKLKHYVA | 0.452 ± 0.37
NHKAIYLRPSSTNPEILSRA | 1.15 ± 0.47
NHRETVFVVIASRSWHARFG | -0.19 ± 1
NHVCRIVTMFGVPSRSN | inactive
NIAKSEILRIWNWW | inactive

Substance | amyloid nucleation score
NIDICDVWFMNCLYIILVAQ | 5.192 ± 0.031
NIDSELSCDYD | -0.784 ± 0.76
NIFEYPGYRRYVCCVGWV | 4.551 ± 0.044
NIKSYVGYRNHFRVSLV | inactive
NILAMKLFVNKFHVIFDEFL | 0.097 ± 1.1
NILTRYS | -0.013 ± 0.31
NIRQVIKGVSCLHIMWEKWR | -0.304 ± 0.48
NIRSYPVNYKHHFT | 0.19 ± 0.27
NIRVNDCVRHPSGDVQARVS | -0.014 ± 0.35
NITLYFKRSLDLFGEPMWTQ | 1.53 ± 0.16
NIVKGFRCLCVNLTDFRETR | 4.09 ± 0.12
NKCEIKLRKWQSSP | -0.337 ± 0.34
NKDRGGRYSICRNYANPFVA | 0.034 ± 0.29
NKLTV | -0.381 ± 0.79
NKRELNIVV | 0.701 ± 0.43
NKSVQARDPTV | inactive
NKVSEFYDGVHFC | -0.235 ± 1.1
NLAFTNALVLLWNSVYLKDE | 8.274 ± 0.058
NLASRALIKLFH | -0.538 ± 0.48
NLCRQVACTLLSLPSDTPRF | 8.842 ± 0.03
NLGDVSYTSSFG | 1.31 ± 0.43
